Data set [1] deals with the molecule itself. Put plainly: SEC-MALS; peak 2 (crystallin) of the mixtures with citrate synthase at 0 min, before incubation; TSK G5000PWXL column, MALS and quasi-elastic light scattering; homo-oligomer of ~20 kDa subunits. In general terms: Size exclusion chromatography separates by hydrodynamic size, large species first.
Data set [2] concerns the target lysozyme (UniProt P00698 19-147). Briefly: cell-based or functional assay.
For data set [3], the target named is luciferase (UniProt P08659 1-550 = luciferase). Briefly: cell-based or functional assay.
Chain of luciferase (P08659 whole entry): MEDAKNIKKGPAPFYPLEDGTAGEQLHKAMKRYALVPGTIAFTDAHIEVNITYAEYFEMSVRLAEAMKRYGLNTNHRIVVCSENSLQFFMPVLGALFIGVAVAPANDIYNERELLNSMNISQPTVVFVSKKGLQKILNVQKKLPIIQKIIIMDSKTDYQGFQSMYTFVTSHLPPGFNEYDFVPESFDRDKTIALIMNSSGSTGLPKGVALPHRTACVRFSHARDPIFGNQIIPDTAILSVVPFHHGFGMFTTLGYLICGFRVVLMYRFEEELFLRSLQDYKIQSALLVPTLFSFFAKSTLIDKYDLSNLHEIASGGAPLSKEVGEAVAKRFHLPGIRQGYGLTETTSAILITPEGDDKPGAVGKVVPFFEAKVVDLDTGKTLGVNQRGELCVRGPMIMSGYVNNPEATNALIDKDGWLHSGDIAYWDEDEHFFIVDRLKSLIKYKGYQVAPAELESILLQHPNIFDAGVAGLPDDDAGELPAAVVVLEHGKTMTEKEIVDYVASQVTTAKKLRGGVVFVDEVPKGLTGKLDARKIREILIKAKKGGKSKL

This is an account of results in paper PMC8509813, “Effect of Structural Changes Induced by Deletion of ^54[sequence]^61 Sequence in αB-crystallin on Chaperone Function and Anti-Apoptotic Activity” (International Journal of Molecular Sciences, 2021).

Chain of lysozyme (P00698 19-147): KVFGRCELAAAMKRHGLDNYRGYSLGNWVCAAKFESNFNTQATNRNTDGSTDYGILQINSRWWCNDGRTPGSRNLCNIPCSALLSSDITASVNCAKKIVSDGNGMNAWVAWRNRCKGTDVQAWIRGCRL

B1: wild-type αB-crystallin (natural protein, human, UniProt P02511 1-175, looked up)
chain: MDIAIHHPWIRRPFFPFHSPSRLFDQFFGEHLLESDLFPTSTSLSPFYLRPPSFLRAPSWFDTGLSEMRLEKDRFSVNLDVKHFSPEELKVKVLGDVIEVHGKHEERQDEHGFISREFHRKYRIPADVDPLTITSSLSSDGVLTVNGPRKQVSGPERTIPITREEKPAVTAAPKK
notes: αB-crystallin, human, wild type; subunit of ~20 kDa that forms a homo-oligomer; also called αB-wt; WT protein; source: E. coli BL21(DE3)pLysS, purified (ammonium sulfate precipitation, gel filtration twice)
Regarding B1, the binding result in data set [1] is “binds”. The “EC50: chaperone concentration that suppresses the aggregation of 10 µM lysozyme (2 mM DTT, PBS, 37 °C, light scattering at 360 nm) by 50%” value in data set [2] is 2.8 µM. Further, in data set [3], the “EC50: chaperone concentration that suppresses the aggregation of 1 µM luciferase (PBS, 37 °C, light scattering at 360 nm) by 50%” value is 48 µM.

B2: αB-crystallin with residues 54–61 deleted (natural protein, human, UniProt P02511 1-175, looked up)
chain: MDIAIHHPWIRRPFFPFHSPSRLFDQFFGEHLLESDLFPTSTSLSPFYLRPPSDTGLSEMRLEKDRFSVNLDVKHFSPEELKVKVLGDVIEVHGKHEERQDEHGFISREFHRKYRIPADVDPLTITSSLSSDGVLTVNGPRKQVSGPERTIPITREEKPAVTAAPKK
notes: No tag is mentioned; 306 kDa by MALS; also called αBΔ54–61; deletion mutant; source: E. coli BL21(DE3)pLysS, purified (ammonium sulfate precipitation, gel filtration twice)
On to B2, for which, in data set [1], the binding result is recorded as “binds”. The “EC50: chaperone concentration that suppresses the aggregation of 10 µM lysozyme (2 mM DTT, PBS, 37 °C, light scattering at 360 nm) by 50%” value in data set [2] worked out at 1.8 µM. Moreover, the “EC50: chaperone concentration that suppresses the aggregation of 1 µM luciferase (PBS, 37 °C, light scattering at 360 nm) by 50%” value in data set [3] was found to be 9 µM.
